Experiment [1] concerns the target T1, human tissue factor (TF), membrane-bound on cells (human, UniProt P13726 33-295). The experiment is described as follows: cell-based or functional assay.
The target in experiment [2] is T2, TFECDHis (extracellular domain of tissue factor, amino acid 1-251, with C-terminal His tag) (human, UniProt P13726 33-251).
T2 construct: range 1-251; The stated range 1-251 starts at residue 1 of NP-001984; also called extracellular domain of TF
The experiment is described as follows: competition ELISA, inhibition of FVIIa (100 nM) binding to coated TFECDHis. Here is the method:
ELISA plates were coated overnight with TFECDHis (0.5 μg/mL, 100 μL per well). Plates were emptied, blocked with PBS containing 2% (v/v) chicken serum (1 hour, RT), and emptied again. […] Plates were washed and incubated with swine-anti-rabbit IgG-HRP antibody (1:2,500; DAKO). After washing, the immune complexes were visualized using ABTS as a substrate.
(In general: In an ELISA, binding on a coated surface is turned into a signal by an enzyme label.)

The target in experiment [3] is T1, human tissue factor (TF), …. The experiment is described as follows: FACS, Bx-PC3 cells, 30 µg/mL. The essentials:
(§1)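 First, cells suspended at 2×10⁶ cells/ml were exposed to serially diluted antibody for 30 minutes on ice. After three washes, PE-conjugated goat anti-human IgGFc (1:100) was applied for 30 minutes on ice in the dark, then binding was measured by flow cytometry.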

Experiment [4] shares this target. The experiment is described as follows: FACS, A431 cells, 30 µg/mL. The essentials: as §1
A general note: A flow cytometer gives signals particle by particle.

The target is the same in experiment [5]. The experiment is described as follows: FACS, A431 cells. Put shortly:
as §1

Experiment [6] shares this target. The experiment is described as follows: FACS, TF transfected CHO cells (S1015-TF). The essentials:
as §1

The target is the same in experiment [7]. The experiment is described as follows: FACS on MDA-MB-231 cells (~900.000 TF molecules/cell) [panel MDA-MB-231 cells].
Experiment [8] shares this target. The experiment is described as follows: cell-based or functional assay. This is another data set of the same source.
For experiment [9], the target named is T2, TFECDHis (extracellular domain of …). The experiment is described as follows: ELISA, coated TFECDHis, mean of 3. Put shortly:
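Plates coated overnight at +4° C with 0.5 μg/mL TFECDHis in PBS pH 7.4, blocked with 2% chicken serum. Serially diluted HuMabs bound 1 h at RT with shaking, detected with HRP anti-human IgG. Binding curves fitted by sigmoidal dose-response with variable slope; anti-KLH HuMab served as negative control.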

Experiment [10] addresses T1, human tissue factor (TF), …. The experiment is described as follows: FACS, MDA-MB-231 cells, 30 µg/mL. Put shortly: as §1
For experiment [11] the target is unchanged. The experiment is described as follows: FACS, MDA-MB-231 cells. Put shortly: as §1
For experiment [12] the target is unchanged. The experiment is described as follows: FACS, Bx-PC3 cells. The essentials:
as §1

Experiment [13] has the same target. The experiment is described as follows: cell-based or functional assay. This is another data set of the same source.
Experiment [14] addresses T3, TF (Innovin) (UniProt P13726 33-295, limits assumed). The experiment is described as follows: cell-based or functional assay.
For experiment [15], the target named is T3, TF (Innovin). The experiment is described as follows: cell-based or functional assay. This is another data set of the same source.
For experiment [16], the target named is T1, human tissue factor (TF), …. The experiment is described as follows: FACS, TF transfected CHO cells (S1015-TF), 7.5 µg/mL. Put shortly:
as §1

In general, IC50 refers to the point on the concentration scale where inhibition reaches its midpoint. A lower IC50 goes with greater potency in that assay. The EC50 is the concentration needed to bring the measured effect to its halfway point. Higher therefore signals lower potency in that assay. In general, EC50 (read off the curve) refers to the concentration needed to bring the measured effect to its halfway point. Higher therefore signals a less potent agent.

B1: anti-TF HuMab 013 (antibody, V domains shown)
VH: EVQLVQSGAEVKKPGESLKISCKGSGYSFTSYWIGWVRQMPGKGLEWMGIIYPGDSDTRYSPSFQGQVTISADKSISTAYLQWSSLKASDTAMYYCARIHRGAGYSSSWPGAFDIWGQGTMVTVSS
VL: DIQMTQSPSSLSASVGDRVTITCRASQGISRWLAWYQQKPEKAPKSLIYAASSLQSGVPSRFSGSGSGTDFTLTISSLQPEDFATYYCQQYDSDPITFGQGTRLEIK
notes: Human monoclonal antibody from HuMab mice; also called HuMab-TF-13
As for B1, the “max inhibition of FVIIa induced IL-8 release (MDA-MB-231)” value in [1] was -0.3%. For the same molecule, in experiment [2], the IC50 was 19.3 nM. This molecule also returned a max inhibition in [2] of 27%. Moreover, the “Max MFI” value in experiment [3] stood at 1300; in [4], 3620; in experiment [10], 2450; in [16], 5210. For the same molecule, the EC50 turned out to be 8.04 nM in experiment [5]; 1.07 nM in experiment [6]; 0.24 nM in experiment [9]; 1.58 nM in experiment [11]; 1.86 nM in [12]. Moreover, the “EC50 (read off the curve)” value in experiment [7] is around 0.1 mg/L. The “EC50 of ADCC, Bx-PC3 cells” value in [8] is 0.07 nM. The “EC50 of ADCC, MDA-MB-231 cells” value in [8] was found to be 0.06 nM. Besides, the “% max inhibition of FVIIa induced ERK phosphorylation (A431)” value in experiment [13] was determined as 26%. In addition, in experiment [13], the “IC50, inhibition of FVIIa induced ERK phosphorylation (A431)” value was determined as 9.11 nM. For the same molecule, the “IC50, inhibition of blood coagulation (TF induced clotting time)” value with TF (Innovin) [14] was 0.6 nM. In the experiment with TF (Innovin) [15], the “% max inhibition of FXa generation” value turned out to be 31%. Moreover, the “IC50, inhibition of FXa generation” value with TF (Innovin) [15] was found to be 0.05 nM.

B2: anti-TF HuMab 109 (antibody, V domains shown)
VH: QVQLVESGGGVVQPGRSLRLSCPASGFTFSIYAMHWVRQAPGKGLEWVAVVSNDGYNKYYADSVKGRFTISRDNSKDTLYLQMNSLRAEDTAVYYCARDGQLGRGYFDYWGQGTLVTVSS
VL: EIVLTQSPATLSLSPGERAILSCRASQSVSSYLAWYQQKPGQAPRLLIYDASNRATGIPARFSGSGSGTDFTLTISSLEPEDFAVYYCQQRSNWPLTFGGGTKVEIK
notes: Human monoclonal antibody from HuMab mice
Consider B2, for which the “IC50, inhibition of FVIIa induced IL-8 release (MDA-MB-231)” value in experiment [1] is 13.6 nM. For the same molecule, in experiment [1], the “max inhibition of FVIIa induced IL-8 release (MDA-MB-231)” value was determined as 70.4%. In [2], this molecule displayed a max inhibition of 90%. The “Max MFI” value in experiment [3] was determined as 1320; in [4], 3120; in [10], 2050; in experiment [16], 5630. Moreover, the concentration giving a half-maximal response (EC50) in experiment [5] came out at 1.74 nM; in [6], 0.92 nM; in experiment [9] it was 0.27 nM; in experiment [11], 2.16 nM; in experiment [12], 4.04 nM. For the same molecule, the “EC50 (read off the curve)” value in experiment [7] is around 0.07 mg/L. Moreover, in experiment [8], the “EC50 of ADCC, Bx-PC3 cells” value stood at 0.06 nM. For the same molecule, the “EC50 of ADCC, MDA-MB-231 cells” value in experiment [8] is 0.12 nM. The “% max inhibition of FVIIa induced ERK phosphorylation (A431)” value in experiment [13] is 72%. For the same molecule, in [13], the “IC50, inhibition of FVIIa induced ERK phosphorylation (A431)” value worked out at 2.42 nM. Moreover, the “IC50, inhibition of blood coagulation (TF induced clotting time)” value in the experiment with TF (Innovin) [14] was found to be 7.6 nM. Also, in the experiment with TF (Innovin) [15], the “% max inhibition of FXa generation” value turned out to be 18%. In addition, the “IC50, inhibition of FXa generation” value with TF (Innovin) [15] was 0.09 nM.
